Assay results reported in article PMC5141469 (Scientific Reports, 2016).

Molecular target: T1, YajC (E. coli, UniProt P0ADZ7 1-110)
T1 construct: YajC of E. coli; also called subunit of SecDF-YajC; subunit of the holo-translocon (HTL)
T1 sequence (looked up): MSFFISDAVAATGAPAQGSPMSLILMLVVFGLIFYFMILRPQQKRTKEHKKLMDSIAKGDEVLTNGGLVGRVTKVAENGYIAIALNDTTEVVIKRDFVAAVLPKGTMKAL
Experiment: SEC + AUC; co-purified detergent-solubilised (DDM) HTL; ultracentrifugation 16 h at 35,000 rpm, 10 °C, absorbance at 280 nm and interference
Settings: both partners purified

B1: SecG (natural protein, E. coli, UniProt P0AG99 1-110, looked up)
chain: MYEALLVVFLIVAIGLVGLIMLQQGKGADMGASFGAGASATLFGSSGSGNFMTRMTALLATLFFIISLVLGNINSNKTNKGSEWENLSAPAKTEQTQPAAPAKPTSDIPN
notes: SecG, subunit of the E. coli SecYEG protein-conducting channel; also called subunit of SecYEG; subunit of the holo-translocon (HTL)
stoichiometry N: 1

B2: SecD (natural protein, E. coli, UniProt P0AG90 1-615, looked up)
chain: MLNRYPLWKYVMLIVVIVIGLLYALPNLFGEDPAVQITGARGVAASEQTLIQVQKTLQEEKITAKSVALEEGAILARFDSTDTQLRAREALMGVMGDKYVVALNLAPATPRWLAAIHAEPMKLGLDLRGGVHFLMEVDMDTALGKLQEQNIDSLRSDLREKGIPYTTVRKENNYGLSITFRDAKARDEAIAYLSKRHPDLVISSQGSNQLRAVMSDARLSEAREYAVQQNINILRNRVNQLGVAEPVVQRQGADRIVVELPGIQDTARAKEILGATATLEFRLVNTNVDQAAAASGRVPGDSEVKQTREGQPVVLYKRVILTGDHITDSTSSQDEYNQPQVNISLDSAGGNIMSNFTKDNIGKPMATLFVEYKDSGKKDANGRAVLVKQEEVINIANIQSRLGNSFRITGINNPNEARQLSLLLRAGALIAPIQIVEERTIGPTLGMQNIEQGLEACLAGLLVSILFMIIFYKKFGLIATSALIANLILIVGIMSLLPGATLSMPGIAGIVLTLAVAVDANVLINERIKEELSNGRTVQQAIDEGYRGAFSSIFDANITTLIKVIILYAVGTGAIKGFAITTGIGVATSMFTAIVGTRAIVNLLYGGKRVKKLSI
notes: SecD of E. coli; also called subunit of SecDF; subunit of the holo-translocon (HTL); not shown: His6, C-terminal, kept
stoichiometry N: 1

B3: SecY (natural protein, E. coli, UniProt P0AGA2 1-443, looked up)
chain: MAKQPGLDFQSAKGGLGELKRRLLFVIGALIVFRIGSFIPIPGIDAAVLAKLLEQQRGTIIEMFNMFSGGALSRASIFALGIMPYISASIIIQLLTVVHPTLAEIKKEGESGRRKISQYTRYGTLVLAIFQSIGIATGLPNMPGMQGLVINPGFAFYFTAVVSLVTGTMFLMWLGEQITERGIGNGISIIIFAGIVAGLPPAIAHTIEQARQGDLHFLVLLLVAVLVFAVTFFVVFVERGQRRIVVNYAKRQQGRRVYAAQSTHLPLKVNMAGVIPAIFASSIILFPATIASWFGGGTGWNWLTTISLYLQPGQPLYVLLYASAIIFFCFFYTALVFNPRETADNLKKSGAFVPGIRPGEQTAKYIDKVMTRLTLVGALYITFICLIPEFMRDAMKVPFYFGGTSLLIVVVVIMDFMAQVQTLMMSSQYESALKKANLKGYGR
notes: SecY, subunit of the E. coli SecYEG protein-conducting channel; also called subunit of SecYEG; subunit of the holo-translocon (HTL)
stoichiometry N: 1

B4: SecF (natural protein, E. coli, UniProt P0AG93 1-323, looked up)
chain: MAQEYTVEQLNHGRKVYDFMRWDYWAFGISGLLLIAAIVIMGVRGFNWGLDFTGGTVIEITLEKPAEIDVMRDALQKAGFEEPMLQNFGSSHDIMVRMPPAEGETGGQVLGSQVLKVINESTNQNAAVKRIEFVGPSVGADLAQTGAMALMAALLSILVYVGFRFEWRLAAGVVIALAHDVIITLGILSLFHIEIDLTIVASLMSVIGYSLNDSIVVSDRIRENFRKIRRGTPYEIFNVSLTQTLHRTLITSGTTLMVILMLYLFGGPVLEGFSLTMLIGVSIGTASSIYVASALALKLGMKREHMLQQKVEKEGADQPSILP
notes: SecF of E. coli; also called subunit of SecDF; subunit of the holo-translocon (HTL)
stoichiometry N: 1

B5: YidC (natural protein, E. coli, UniProt P25714 1-548, looked up)
chain: MDSQRNLLVIALLFVSFMIWQAWEQDKNPQPQAQQTTQTTTTAAGSAADQGVPASGQGKLISVKTDVLDLTINTRGGDVEQALLPAYPKELNSTQPFQLLETSPQFIYQAQSGLTGRDGPDNPANGPRPLYNVEKDAYVLAEGQNELQVPMTYTDAAGNTFTKTFVLKRGDYAVNVNYNVQNAGEKPLEISSFGQLKQSITLPPHLDTGSSNFALHTFRGAAYSTPDEKYEKYKFDTIADNENLNISSKGGWVAMLQQYFATAWIPHNDGTNNFYTANLGNGIAAIGYKSQPVLVQPGQTGAMNSTLWVGPEIQDKMAAVAPHLDLTVDYGWLWFISQPLFKLLKWIHSFVGNWGFSIIIITFIVRGIMYPLTKAQYTSMAKMRMLQPKIQAMRERLGDDKQRISQEMMALYKAEKVNPLGGCFPLLIQMPIFLALYYMLMGSVELRQAPFALWIHDLSAQDPYYILPILMGVTMFFIQKMSPTTVTDPMQQKIMTFMPVIFTVFFLWFPSGLVLYYIVSNLVTIIQQQLIYRGLEKRGLHSREKKKS
notes: YidC of E. coli; also called membrane 'insertase' YidC; subunit of the holo-translocon (HTL); not shown: His6, C-terminal, kept
stoichiometry N: 1

B6: SecE (natural protein, E. coli, UniProt P0AG96 1-127, looked up)
chain: MSANTEAQGSGRGLEAMKWVVVVALLLVAIVGNYLYRDIMLPLRALAVVILIAAAGGVALLTTKGKATVAFAREARTEVRKVIWPTRQETLHTTLIVAAVTAVMSLILWGLDGILVRLVSFITGLRF
notes: SecE, subunit of the E. coli SecYEG protein-conducting channel; also called subunit of SecYEG; subunit of the holo-translocon (HTL); not shown: His6, N-terminal, kept
stoichiometry N: 1
